Measured values from the nanobody polyreactivity screen of Harvey et al. (2022).

assay: yeast display, Sf9 membrane polyspecificity reagent, FACS + sequencing; frameworks hold sequencing errors
Method in brief: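 Polyreactivity labels are assigned by the sorting gate from which each nanobody was recovered. The gates were low and high (top ~1%), set on anti-HA fluorescence for expression and streptavidin fluorescence for reagent binding. Before sorting, galactose-induced (36–48 hours) yeast display cells were stained for 1 hour at 4 °C with 10% biotinylated, detergent-solubilized Sf9 membrane reagent.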

| Sequence | polyreactivity (PSR sort gate) |
| --- | --- |
| QVQLVESGGGLVQAGGSLRLSCAASGSTFSYYGMGWSRQAPGKERELVAAISWSGGSTYYADSVKGRFTISRDNAKNTVYLQMNSLKPEDTAVYYCARLDSAAEPRQYDYWGQGTQVTVSS | high polyreactivity |
| QVQLVESGGGLVQAGGSLRLSCAASGIIFYDYAMGWYRQAPGKERELVAAISGSGVGTYYADSVKGRFTISRDNAKNTVYLQMNSLKPEDTAVYYCATRYQWGGPYYRYDYWGQGTQVTVSS | high polyreactivity |
| QVQLVESGGGLVQAGGSLRLSCAASGSTYPYAMGWYRPAPGKERELVAAITWSGGNTYYADSVKGRFTISRDNAKNTVYLQMNSLKPEDTAVYYCAKSRYATQTDYNYWGQGTQVTVSS | high polyreactivity |
| QVQLVESGGGLVQAGGSLRLSCAASGRIFPTNAMGWYRQAPGKERELVASITRSGSTYYADSVKGRFTISRDNAKNTVYLQMNSLKPEDTAVYYCAAYAYIFLDWGGYPYYLYEYDYWGQGTQVTVSS | low polyreactivity |
| QVQLVESGGVLVQAGGSLRLSCAASGSTFYGYAMGWYRQAPAKERELVAAITRSGGSTYYADSVKGRFTISRDNAKNTVYLQMNSLKPEDTAVYYCARQDRDTYYHRYYYGGQGTQVTVSS | high polyreactivity |
| QVQLVESGGGLVQAGGSLRLSCAASGSIFDWYAMGWYRQAPGKERELGAAITNSGGRTYYADSVKGRFTISRDTAKNTVYLQMNSLKPEDTAVYYCNASVFRLRKMYYWGQGTPVTVSS | high polyreactivity |
| QVQLVESGGGLVQAGGSLRLSCAASGSTFYYYAMGWYRQAPGKERELVAVITRGGGTYYADSVKGRFTISRDNAKNTVYLQMNSLKPEDTAVYYCNARQRSSTRKGYNYWGQGTQVTVSS | high polyreactivity |
| QVQLVESGGGLVQAGGSLRLSCAASGSTFFYYDMGWYRQAPGKERELVAAITSGGSTYYADSVKGLFTISRDNAKNTVYLHMNSLKPEDTAVYYCNAESYFWDFYDYDHWGQGTQVTVSS | low polyreactivity |
| QVQLVESGGGLVQAGGSLRLSCAASGSIFRVYGMGWHRQAPGKERELVAAITWSGGSTYYADSVKGRFTISRDNAKNTVYLQMNSLKPEDTAVSYCAARARPRYYRPPYDYWGQGTQVTVSS | high polyreactivity |
| QVQLVESGGGLVQAGGSLRLSCAASGGIFVSYAMGWYRQAPGNERELVAAITSGGGTSYADSVKGRFTISRDNAKNTVYLQMNSLKPEDTAVYYCNADGYLAERFVIRLDEYRDYDYWGQGTQVTVSS | low polyreactivity |
| QVQLVESGGGLVQAGGSLRLSCAASGKPMGWYRQAPGKERELVAAITYGGTTTYYADSVKGRFTISRDNAKNTVYLQMNSQKPEDTAVYYCAADYVFVATPLRYDYWGQGTQVTVSS | low polyreactivity |
| QVQLVESGGGLVQAGGSLRLSCAASGFTFKAYAMGWYRQAPGKERELVAAITRSGGRTYYADSVKGRFTISRDNAKNTVYLQMNSLKPEDTAVYYCARDYTRYAYDHWGQGTQVTVSS | high polyreactivity |
| QVQLVESGGGLVQAGGSLRLSCAASGITFGRNTMGWYRPAPGKERELVAAIDSGGNTYADSVKGRFTISRDNAKNTVYLQMNSLKPEDTAVYYCAVDGGEFSSYGYWGQGTQVTVSS | low polyreactivity |
| QVQLVESGGGLVQAGGSLRLICAASGRTFRGYTMGWYRQAPGKERELVAAITWSGGSTYYADSVKGRFTISRDNAKNTVYLQMNSLKPEDTAVYYCAATKYLSFLYDYWGQGTLVTVSS | high polyreactivity |
| QVQLVESGGGLVQAGGILRLICAASGFIFLGYALGWYRQAPGTERELVAAISSDSDKNYADSVKGRFTISRDNAKNTVYLQMNILKPEDTAVYYCIADIDSYREMDYWGQGTQVTVSS | low polyreactivity |
| QVQQQESGGGRCSGRRTTPGLRGERHYFSLLHGLVSPGAGQEREFVAAIAVRSTYYADSAKGRFTINRDNAKYTVYLQMNSLKPEDTSVYSCAAYYSYYGGDYWGQGTQVTVSS | low polyreactivity |
| QVQLVESGGGLVQAGGSLRLSCAASGSTSPYYDRGWSRQAPGKERELVAAITSGGSTNYADSVKGRFTISRDYAKNSVYLQMNSLKPEDTAVYYCATDWSDDLWTWYYYWGQGTQVTVSS | high polyreactivity |
| QVQLVESGGGLVQAGGSFRLSCAASGRIFSPNAMGWYRQAPGKEREFVAAITWRAGTTYYADSVKGRFTISRDNAKNTVYLLMNSLKPEDTAVYYCAAGRRLGYGYWGQGTQVTVSS | high polyreactivity |
| QGQLVESGGGLVQAGGSLRLSCAASGRTFKVYAMGWYRQAPGKERELVAAISFSGGSTYYADSVKGRFTISRDNAKNTVYLQMNSLKPEDTAVYYCATTYPGAIRDYWGQGTQVTVSS | high polyreactivity |
| QVQLVESGGGLVQAGGSLRLSCAASGSTFPRNAMGWYRQAPGKERELVAVITGSGGSTYYADSVKGRFTISRDNAKNTVYLQMNSLKPEDTAVYYCNARPTRRTRYDSWGQGTQVTVSS | high polyreactivity |
| QVQLVESGGGLVQAGGSLRLSCAASGSIIPRNVMGWYRQAPGKERDLVAAISSSGGSTSYADSVKGRFTISRDNAKNTVYLQMNSLKPEDTAVYYCNAPWQRYSAPWGQGYNYWGQGTQVTVSS | high polyreactivity |
| QVQLVESGGGLVQAGGSLRLSCAASGSIFSNYAMGWYRQAPGKERELVAAISRSGGSTRYADSVKGRFTISRDNAKNTVYLQMNSLKPEDTAVYYCNAVRYPRLMYYWGQGTQVTVSS | high polyreactivity |

| Sequence | polyreactivity (PSR sort gate) |
| --- | --- |
| QVQLVESGGGLVQAGGSLRLSCAASVFTFTRYVMGWYRQAPVKERELVAAISGSGGSTNYADSVKGRFTISRDNAKNTVYLQMNSLKPEDTVVYYCAARFVGSRYRFDYWGQRTQVTVSS | high polyreactivity |
| QVQLVESGGGLVQAGGSLRLSCAASGSIFQINVMGWYRQAPGKERELVAASYADSVKGRFTISRDNAKNTVYLQMNSLKPEDTAVYYCARSNPAYSIYDYWGQGTQVTVSS | low polyreactivity |
| QVQLVESGGGLVQAGGSLRLSCAASGFTFNGNAMGWYRPAPGKERELVAAITRTGTDTSYADSVKGRFTISRDNAKNTVYLQMNSLKPEDTAVYYCAAPPYNGYRYGTTGYYWGQGTQVTVSS | low polyreactivity |
| QVQLEESGGGLVQAGGSLRLSCAASGSIFFEYAMGWYRQAAGKERELVASINRGGGSTYYADSVKGRYTISRDNAKKNVYLQMNSLKPEDTAVYYCAAQWKYRQSYLDYYWGQGTQVTVSS | low polyreactivity |
| QVQLVESGGGLVQAGGSLRLSCAASGSTFGPYVMGRYRQAPGKDRELVAAITRSGGRTYYADSVKGRFTISRDNAKNTVYLQMNSLKPEDTAVYYCAAPPSEATSQRYKYNYWGQGTQVTVSS | high polyreactivity |
| LVQLVESGGGLVHAGGSLRLSCAASGSTFNIYAMGWYRQAPGKERELVAAISSSGGRTYYADSVKGRFTISRDNAKNTVYFQMIRLKPEDTAVYYCAARSRRVSLIRDSYGYWGQGTQVNVSS | high polyreactivity |
| QVQLVESGGGLVQAGGSLRLSCAASGRIIKVYAMAWYRQAPGKDRELVAAISSRGGSTYYADSVKGRFTISRDNAKNTVYLQMNSVKPEDTAVYYCAALVTWLHPKGDYWGQGTQVTVSS | low polyreactivity |
| QDQLVESGGGLVQAGGSLRLSCAASGITFVYYAMGWYRQAPGKERELVAAITGSGDSTYYADSVKGRFTISRDNAKNTVYLQMNSLKPEDTAVYYCAAEAWWYGGFGYWGQGTQVTVSS | high polyreactivity |
| QVQLVESGGGLVQAGGSLRLSCAASGSTFYAYAMGWYRQAPGKERELVAAIDSGGSTYYADSVKGRFPISRDNAKNTVYFQMNSLNPEDTAVYYCAVRHRYTRAYWGRDYWGQGTQVTVSS | low polyreactivity |
| QVQLVESGGGLVQAGGSLRLSCAASGGIFGLYTMGWYRQAPGKERELVAGISKRGTRTRYADSVKGRFTISRDNAKNTVYLQMNSLKPEDTAVYYCNADYYVSKLDYWGQGTQVTVSS | high polyreactivity |
| QVQLVESGGGLVQAGGSLRLSCAASGFTFSSYAMGWYRQAPGKERELVAAITWGGGRTYYADSVKGRFTISRDNAKNTVYLQINSLKPEDTAVYYCNVPQWVSIWRKNNYWGLGTQVTVSS | high polyreactivity |
| QVQLVESGGGLVQAGGSLRLICAASGFTFAYYAMGWYRQATGKERELVAAISSGGGTYYADSVKGRFTISRDNAKNTVYLQMNSLKPEDTAVYYCNARYYFVFGRYNYWGQGTQVTVSS | high polyreactivity |
| QVQLEESGGGLVQAGGSLRLTCAASGRTIVYNAMGWYRQAPGKERELVAAIDGGTGSTYYADSVKGRFTISRDNAKNTVYLEMNCLKPEDTAVYYCAVETYGGGYPVTYDYWGQGTQVTVSS | low polyreactivity |
| QVQLVESGGGLVQAGGSLRLSCAASGFILVFYARGWYRPAPGKERELVAAIDWSGTITYYADSVKGRFTISRDNAKNTVYLQMNSLKPEDTAVYYCAADGEPFYDFYYWGQGTQVTVSS | high polyreactivity |
| QVQLVESGGGLVQAGGSLRLSCAASGNIFLRYAMGWYRQAPGKERELVAAISYSGGGSTYYADSVKGRFTISRDNAKNTVYLQMNSLKPEDTAVYYCAKVLTSRTQFFDYDYWGQGTQVSVSS | low polyreactivity |
| QVQLVESGGGLVQAGGSLRLSCAASGRTFATYAMAWYRQAPGKERELVAAISRSGSTTYYADSVKGRFTISRDNAKNTVYLQMNSLKPEDTAVYYCNAKFRKADYDYWGQGTQVTVSS | high polyreactivity |
| QDQLVESGGGLVQAGGSLRLSCAASGFIFFYYAMGRYRQAPGKERELVAAISSSGGSTYYADSVKGRFTISRDNAKNTVYLQMNSLKPEDTAVYYCAAQYNVPRDKYYYWGQGTQVTVSS | high polyreactivity |
| QVQLVESGVGLVQAGGSLRLCCAASGSTSKYYAMVWYRQSPGKERELVAAITWSDVSTYYADSVKGRFTISRDNAKNTVYLQMNSLKPADTAVYYCNAGYDYWGQGTQVTVSS | low polyreactivity |
| QVQLVESGGGLVQAGGSLRLSCAASGRIFYRNVMGWYRQAPGKERELVAAITYRTGSTYYADSVKGRFTISRDNAKNTVYLQMNSLKPEDTAVYYCATESGLTYDYWGQGTQVTVSS | high polyreactivity |
| QVQLVESGGGLVQAGGSLRLSCAASGRILYSYAMGWYRQAPGKERELVAAISSTGSTYYADSVKGRFTISRDNAKNTVYLQMNSLKPEDTAVYYCAATFYPYQVHHYYYWGQGTQVTVSS | low polyreactivity |
| QVQLVESGGGLVQAGGSLRLSCAASGFIFLYAMGWYRQAPGKERELVAAISWSDTSTYYADSVKGRFTISRDNAKNTVYLQMNSLKPEDTAVYYCNAETWNYGDYDYWGQGTQVTVSS | high polyreactivity |
